Drawing on patent publication US20180044401A1, this text covers inclination of approximate curve (binding response against peptide concentration) for one molecule.

Experiment [1] deals with IgG-Fab prepared from anti-TNFα monoclonal antibody (Remicade). Put plainly: SPR Biacore, Fab immobilized at about 10000 RU, peptide at 25-200 nM, response 1 minute after addition. In general terms: Surface plasmon resonance follows binding to a sensor surface in real time, without labels.
For experiment [2], the target named is IgG-Fc of anti-TNFα monoclonal antibody (Remicade). Description: SPR Biacore, Fc immobilized at about 10000 RU, peptide at 25-200 nM, response 1 minute after addition.

Several values for one entry are separate records, joined by “and”; a condition that tells them apart may be missing. Identical values can stand only once.

B1: IgG-binding peptide of SEQ ID NO: 14 (designed binder)
chain: GPLGSTTYKLILNGKTLTGYTTAIADDAATAEKVLKQFANDNGIDGEWTYDDATKTFTVTE
On to B1, for which the inclination of approximate curve (binding response against peptide concentration) in experiment [1] was 0.5 and 0.4 and 0.6; in experiment [2] it was 0.5 and 0.4 and 0.6.
